Measurements taken from US20170226204A1.
Like-named read-outs stand apart in the source and are kept apart here.

What was measured:
[1] = molecular target: human CD7 molecule (human) (UniProt P09564); test: flow cytometry on CD7-positive Jurkat cells
[2] = molecular target: human CD7 molecule (human) (UniProt P09564); test: flow cytometry on H460 cells transfected with pcDNA3.1-CD7
[3] = molecular target: human CD7 molecule (human) (UniProt P09564); test: as above; remark: listed apart in the source

human CD7 molecule (human), sequence (P09564 26-240): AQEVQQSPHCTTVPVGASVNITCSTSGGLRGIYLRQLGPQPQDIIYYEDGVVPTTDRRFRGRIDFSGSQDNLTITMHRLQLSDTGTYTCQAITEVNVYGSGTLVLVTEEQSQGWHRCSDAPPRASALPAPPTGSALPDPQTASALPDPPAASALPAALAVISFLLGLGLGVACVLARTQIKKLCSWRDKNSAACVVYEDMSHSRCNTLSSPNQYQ

- positive rate of CD7+ [1]: 96.6%
- transfection efficiency (percent of cells stained) [2]: 18%
- transfection efficiency (percent of cells stained) [3]: 18.8%
Substance: commercial CD7 antibody (BD CD7-PE)
